Measured values: the nanobody polyreactivity screen of Harvey et al. (2022)

Assay: yeast display, Sf9 membrane polyspecificity reagent, FACS + sequencing; frameworks hold sequencing errors
In short: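 Polyreactivity labels are assigned by the sorting gate from which each nanobody was recovered. The gates were low and high (top ~1%), set on anti-HA fluorescence for expression and streptavidin fluorescence for reagent binding. Before sorting, galactose-induced (36–48 hours) yeast display cells were stained for 1 hour at 4 °C with 10% biotinylated, detergent-solubilized Sf9 membrane reagent.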

Row | Sequence | polyreactivity (PSR sort gate)
1 | QDQLVESGGGLVQAGGSLRLSCAASGRIFKSYAMGWYRQAHGKERELVAAISSSGGSTYYADSVKGRFTISRDNAKNTVYLQMNSLKPEDTAVYYCAAYGHYSWSYDYWGQGTQVTVSS | high polyreactivity
2 | QDQLVESGGGLVQAGGSLRLSCAASGRIFKYKAMGRYRQAPGKERELVAAIRRSGGSTYYADSVKGRFTISRDYAKNTVYLQMNSLKPEDTAVYFCNRLYGPGFKSVYGYDYWGQGTQVTVSS | high polyreactivity
3 | QDQLVESGGGLVQAGGSLRLSCAASGRIFPGNAMGWYIHEPGKERELVADITSGGSTNYADSVNGRFTISRDNAKNSVYLQMNSLKPEDTAVYYCAVGQIYQTSDHRLQYVYWGQGTQVTVSS | low polyreactivity
4 | QDQLVESGGGLVQAGGSLRLSCAASGRIFPWYTMGWYRQAPGKERELVAVISSGGRTHYADSVKGRFTISRDNAKNTVYLLMNSLKPEDTAVYYCAAESRYQRYDYWGQGTKVTVSS | high polyreactivity
5 | QDQLVESGGGLVQAGGSLRLSCAASGRIFRRNTQGWSRQAPGKERELVAAITSSGGSTFADSVKGRFTISRDNAKNTVYLQMNSLKPEDTAVYYCATYVAYHRGYRTYDHWGQGTQVTVSS | low polyreactivity
6 | QDQLVESGGGLVQAGGSLRLSCAASGRIFSKYAKGWYRQAPGKERELVAAITTGGGSTSYADSVKGRFTISRDNAKITVYLQMNSLKPEDTAVYYCAADRLSYGFGMYYWGQGTQVTVSS | low polyreactivity
7 | QDQLVESGGGLVQAGGSLRLSCAASGRIFYRYAMGWYRQAPGKERELVATISRSGGSTNYADSVKGRFTISRDNAKKTVYLQLNSLKPEDTAVYYCAAQYTYRFPYPGYATTHDYWGQGTQVTVSS | high polyreactivity
8 | QDQLVESGGGLVQAGGSLRLSCAASGRIIRAYAMGWYRQAPGKERELVAAISGGSNTNYADSVKGRFTISRDNAKNTVYLQMNSLKPEDTAVYYCAADAGYWESLWYPYGFYWGQGTQVTVSS | low polyreactivity
9 | QDQLVESGGGLVQAGGSLRLSCAASGRILRRNVMGWYRQAPGKESELVATITNSGGRTYYADSVKGRFTISRDNEKNTVYLLMNSLQPEDTAVYYCAKYGYGYTGYGYWGQGTQVTVSS | high polyreactivity
10 | QDQLVESGGGLVQAGGSLRLSCAASGRISTYTMGWYRQAPGKERELVATISTDASTNYADSVKGRFTISRDNAKNTVYLQMNSLRPEDTAVYYCAAVIVNQDYDYWGQGTQVTVSS | low polyreactivity
11 | QDQLVESGGGLVQAGGSLRLSCAASGRNFRYYTMGWYRQAPGKERELVAAITRRGGITNYADSVKGRFTISRDNGKNTVYLQMNSLKPEDTAVYYCAAKYVSQCYDYWGQGTQVTVSS | high polyreactivity
12 | QDQLVESGGGLVQAGGSLRLSCAASGRNFSYYAMGWYRQAPGKERELVAAIRWSGGRTYYADSVKGRFTISRDNAKNTVYLQMNSLKPEDTAVYYCAAEGAYRLAYDSWGQGTQVTVSS | high polyreactivity
13 | QDQLVESGGGLVQAGGSLRLSCAASGRTFAAYAMGWYRQAPGKERELVATIRRGGTTDYADSVKGRFTISRDNAKNTVYLQMNSLKPEDTAVYYCNARSRTYRTRRYDYWGQGTQVTVSS | high polyreactivity
14 | QDQLVESGGGLVQAGGSLRLSCAASGRTFAYNAMVWYRQAPGKERELVADITSGGSTYYADSVKGRFTISRDNPKNTVNLQMNSLKPEDTAVYDCADVRQGSFTTMDYWGQGTQVTVSS | high polyreactivity
15 | QDQLVESGGGLVQAGGSLRLSCAASGRTFFGYAMGWYRQAPGKERELVAAITTSGGSTYYADSVKGRFTISRDNAKNTVYLQMNSLKPEDTAVYYCAARAYYGYYYWGQGTQVTVSS | low polyreactivity
16 | QDQLVESGGGLVQAGGSLRLSCAASGRTFIRNAMGWYRPAPGKERELVAAISRSGGRTYYADSVKGRFTISRDNAKNTVYLQMNSLKPEDTAVYYCAAGSYQRYAFDYWGQGTQVTVSS | high polyreactivity
17 | QDQLVESGGGLVQAGGSLRLSCAASGRTFIRNSMGWNRQAPGKERELVAAISGTGGSTYYADSVKGRFTISRDYAKNTVYLQMNSLKPEDTAVYYCAADRPAPGYDFWGQVTQVTVSS | low polyreactivity
18 | QDQLVESGGGLVQAGGSLRLSCAASGRTFLRYTMGWYRQAPGTETELVADITNGGTRTYYADSVKGRFTFSRDYAKNTVYLQMNRLKPEDTAVYYCGARVRYTANYDYWGQGTQVTVSS | high polyreactivity
19 | QDQLVESGGGLVQAGGSLRLSCAASGRTFPPYGMGWSRQAPGKERELVAAISKSSGSTNYADSVKGRFTISRDNAKNTVYLQMNSLKPEDTAVYYFNVDLYRWSKLAGAYRMDYWGQGTQVTVSS | low polyreactivity
20 | QDQLVESGGGLVQAGGSLRLSCAASGRTFRRNAMGWYRPAPGKERELVAAITSSGGSTYYADSVKGRFTISRDNAKNTVYLQMNSLKPEDTAVYYCNAVGKPQSSQYYYWGQGTQVTVSS | high polyreactivity
21 | QDQLVESGGGLVQAGGSLRLSCAASGRTFRVYAMGWYRQAPGKERELVATITSSGGSTYYADSVKGRFTISRDNAKNTVYLQMNCLKPEDTAVYYCAADGGSASIHDYWGQGTQVTVSS | low polyreactivity
22 | QDQLVESGGGLVQAGGSLRLSCAASGRTFRWNAMGWYRQAPGKERELVAAITKSGGSTYYADSVKGRFTISRDNAKNTVYLQMNSLKPEDTAVYYCAAPRYSTFTYDYWGQGTQVTVSS | low polyreactivity

Row | Sequence | polyreactivity (PSR sort gate)
23 | QDQLVESGGGLVQAGGSLRLSCAASGRTFSYNTMGWYRQAPGKERELVAAITRSGGSTYYADSVKGRFTISRDNAKNTVYLQINSLKPEDTAVYYCNARSWYWGQGTQVTVSS | high polyreactivity
24 | QDQLVESGGGLVQAGGSLRLSCAASGRTFTRNAMGWYRQAPGKERELVAAISISGGRPYYADSVKGRFTISRDNAKNTVYLQMNSLKPEDTAVYYWAKVTTSKYDYDYWGQGTQVTVSS | high polyreactivity
25 | QDQLVESGGGLVQAGGSLRLSCAASGRTFWVYAMGWYRQAPGKERELVAAIRRGGITNYADSVKGRFTISRDNAKNTVYLQMNSLKPEDTAVYYCATDNYGYLTRYYYWGQGTQVTVSS | low polyreactivity
26 | QDQLVESGGGLVQAGGSLRLSCAASGRTFYDNVMGWYRQAPGKERELVAAISSGASTNYADSVKGRFTISRDNAKNSVYFQMNSLKPEDSAVYYCATNGGGGWAYEYWGQGTQVTVSS | low polyreactivity
27 | QDQLVESGGGLVQAGGSLRLSCAASGRTFYQYAMGWYRQAPGKERELVAAITFRGGSTNYADSVKGRFTISRDNAKNTVYLQMNSLKPEDTAVYYCAATVYGTVYKGRSQYEYGYWGQGTQVTVSS | high polyreactivity
28 | QDQLVESGGGLVQAGGSLRLSCAASGSIFADYAMGWYRQAPGKERELVAVISRRGGTTYYADSVKGRFTISRDNAKNTVYLQMNSLKPEDTAVYYCAARRSFNEYDSWGHGTQVTVSS | high polyreactivity
29 | QDQLVESGGGLVQAGGSLRLSCAASGSIFDDYAMGWYRQAPRKERELVASISWSGGRTYYADSVKGRFTISRDNAKNTVYLQMNSLKPEDTAVYYCAAALWTGYSWGQGTQVTVSS | low polyreactivity
30 | QDQLVESGGGLVQAGGSLRLSCAASGSIFGVNDMGWYRQGAGKERELVAGINQGGGSTYYADSVKGRFTISRDNAKNSVYLQMNSLKPEETAVYYCAAVRYVLRSPARYGYWGQGTQVTVSS | low polyreactivity
31 | QDQLVESGGGLVQAGGSLRLSCAASGSIFKHNDMGWYRQAPGKERELVAAISRSGGSTYYAHSVKGRFTISRDNAKNTVYLLMNSLKPEDTAVYYCNAGRRTARYGYWGQGTQVTVSS | high polyreactivity
32 | QDQLVESGGGLVQAGGSLRLSCAASGSIFKINAMGWYRQATGKERELVATITWSTGTTYYADSVKGRFTISRDNAKNTVYLQMNSLKPEDTAVYYCATDGDSTKLDYWGQGTQVTVSS | low polyreactivity
33 | QDQLVESGGGLVQAGGSLRLSCAASGSIFLYNAMGWYRQAPGKERELVADITSAGRTYYADSVKGRFTISRDNAKNTVYLQMNSLKPEDTAVYDCNKDYHYHFSWYGYWGQGTQVTVSS | low polyreactivity
34 | QDQLVESGGGLVQAGGSLRLSCAASGSIFSGYAMGWYRQPPGKERELVAAISRRGTSTYYADSVKGRFTISRDNAKNTVYLQMNSLKPEDTAFYYCAATYGGRQSYGGFDYWGQGTQVTVSS | high polyreactivity
35 | QDQLVESGGGLVQAGGSLRLSCAASGSIFSNNAMGWYRQAPGKERELVATITFSGGNTYYADSVKGRFTISRDNAKNTVYLQMNSLKPEDTAVYYCNADRYPVGTAREYDSWGQGTQVTVSS | low polyreactivity
36 | QDQLVESGGGLVQAGGSLRLSCAASGSIFTSYAMGWYRQAPGKERELVAAITGGDSTNYADSVKGRFTISRDNAKNTVYLQMNSLKPEDTAVYYCNAADPNYFDRDTHYYWGQGTQVTVSS | low polyreactivity
37 | QDQLVESGGGLVQAGGSLRLSCAASGSILGHYDMGWYRPAPGKERELVAAISWSGGSTYYADSVKGRFTISRDNAKNTVYLQMNSLKPEDTAVYYCNAAAILYTSAGSLYWYDYWGQGTQVTVSS | low polyreactivity
38 | QDQLVESGGGLVQAGGSLRLSCAASGSISSKNAMGCYRQAPGKEREFVAVISGTGGSTYYSDSVKGRFTISRDNAKNTVYLQMNRLKPEDTAVYYCAAAGSSIVSYGYSWTYGYWGQGTQVTVSS | low polyreactivity
39 | QDQLVESGGGLVQAGGSLRLSCAASGSNFAVYAMGWSRQAPGKERELVAAISYRGARTYYADSVKGRFTISRDNAKNTVYLQMNSLKPEDTAVYYCAAQGVTSPGVDSWGQGTQVTVSS | high polyreactivity
40 | QDQLVESGGGLVQAGGSLRLSCAASGSTFEYYAMGWYRQAPGKERELVAAISSGPSTTYADSVKGRFTISRDNAKNTVYLQMNSLKPEDTAVYYCARRDGTTQALFGYDYWGQGTQVTVSS | low polyreactivity
41 | QDQLVESGGGLVQAGGSLRLSCAASGSTFEYYAMGWYRQAPGKERELVAAITRRGGSTYYADSVKGRFTISRDNAKNTVYLQMNSLKPEDTAVYYCAAVPTQKSQRTHDYCGQGTQVTVSS | low polyreactivity
42 | QDQLVESGGGLVQAGGSLRLSCAASGSTFGYYAMGWYRKAPGKERELVAAITSGASTNYADSVKGRFTISRDNAKNTVYLQMNSLKPEDTAVSYCAAGFQTRTPLNEFDYWGQGTQVTVSS | low polyreactivity
43 | QDQLVESGGGLVQAGGSLRLSCAASGSTFGYYAMGWYRQAPGKERELVAAISWRGGTYYADSVKGRFTISRDNAKNTVYLQMNSLKPEDTAVYYCAADDYIVSRYRYGVRYGYWGQGTQVTVSS | high polyreactivity
